What all share (assay): SEC; purified mutant TNFα alone on a size exclusion column; single peak; column and buffer not given
Assay [1] concerns the target mTNFα mutant 1, [Q6R, N7T, S8P]mTNF-α(1–156) (mouse).
Assay [2] has as its target mTNFα mutant 16, [L1V, Q6R, N7T, S8P, H20P, V22A, E24G, E27Q, S30N, Q31R, M41V, V58I, V79I, V96I, V135I, L137R, K139D, V153I]mTNF-α(1–156) (mouse).
Assay [3] concerns the target mTNFα mutant 20, [L1V, Q6R, N7T, S8P, H20P, V22A, E24G, E27Q, S30N, Q31R, M41V, D42E, K44R, V58I, D71S, Y72H, ins 71_T_72, V79I, V96I, P101Q, K102R, D103E, L110A, V135I, L137R, K139D, V153I]mTNF-α(1–156) (mouse).
The target in assay [4] is mTNFα mutant 14, [H20P, V22A, E24G, E27Q, M41V, V58I, V79I, V96I, V135I, V153I]mTNF-α(1–156) (mouse).
In assay [5] the target is mTNFα mutant 18, [L1V, Q6R, N7T, S8P, H20P, V22A, E24G, E27Q, S30N, Q31R, M41V, V58I, V79I, V96I, V135I, V153I]mTNF-α(1–156) (mouse).
For assay [6], the target named is mTNFα mutant 8, [L137R, K139D]mTNF-α(1–156) (mouse).
In assay [7] the target is mTNFα mutant 3, [S30N, Q31R]mTNF-α(1–156) (mouse).
In assay [8] the target is mTNFα mutant 13, [M41V, V58I, V79I, V96I, V135I, V153I]mTNF-α(1–156) (mouse).
For assay [9], the target named is mTNFα mutant 5, [P101Q, K102R, D103E, L110A]mTNF-α(1–156) (mouse).
Assay [10] addresses mTNFα mutant 10, [H20P, V22A, E24G, E27Q, S30N, Q31R, L137R, K139D]mTNF-α(1–156) (mouse).
The target in assay [11] is mTNFα mutant 11, [Q130R]mTNF-α(1–156) (mouse).
Assay [12] has as its target mTNFα mutant 17, [L1V, Q6R, N7T, S8P, H20P, V22A, E24G, E27Q, S30N, Q31R, M41V, D42E, K44R, A52S, D53E, V58I, V79I, F82I, I84V, E88T, V96I, Q130R, V135I, L137R, K139D, V153I]mTNF-α(1–156) (mouse).
In assay [13] the target is mTNFα mutant 12, [D42E, K44R, F82I, I84V, E88T, Q130R]mTNF-α(1–156) (mouse).
For assay [14], the target named is mTNFα mutant 6, D71S, Y72H, ins 71_T_72, P101Q, K102R,D103E,L110A]mTNF-α(1–156) (mouse).
The target of assay [15] is mTNFα mutant 9, [H20P, V22A, E24G, E27Q]mTNF-α(1–156) (mouse).
The target in assay [16] is mTNFα mutant 7, [E88T]mTNF-α(1–156) (mouse).
The target in assay [17] is mTNFα mutant 2, [Q6R, N7T, S8P, A52S, D53E]mTNF-α(1–156) (mouse).
Assay [18] addresses mTNFα mutant 4, [D71S, Y72H, ins 71_T_72]mTNF-α(1–156) (mouse).
Assay [19] concerns the target mTNFα mutant 19, [L1V, Q6R, N7T, S8P, H20P, V22A, E24G, E27Q, S30N, Q31R, M41V, D42E, K44R, V58I, V79I, V96I, P101Q, K102R, D103E, L110A, V135I, L137R, K139D, V153I]mTNF-α(1–156) (mouse).
The target in assay [20] is mTNFα mutant 15, [H20P, V22A, E24G, E27Q, S30N, Q31R, M41V, V58I, V79I, V96I, V135I, L137R, K139D, V153I]mTNF-α(1–156) (mouse).

This is an account of results in paper PMC3755337.

As for “mTNFα mutant 1, [Q6R, N7T, S8P]mTNF-α(1–156) (natural protein)”, in assay [1], the stoichiometry N (in general, a count of units in the complex or per binding partner) came out at 3.
Substance “mTNFα mutant 16, [L1V, Q6R, N7T, S8P, H20P, V22A, E24G, E27Q, S30N, Q31R, M41V, V58I, V79I, V96I, V135I, L137R, K139D, V153I]mTNF-α(1–156) (natural protein)” gave a stoichiometry N in assay [2] of 3.
“mTNFα mutant 20, [L1V, Q6R, N7T, S8P, H20P, V22A, E24G, E27Q, S30N, Q31R, M41V, D42E, K44R, V58I, D71S, Y72H, ins 71_T_72, V79I, V96I, P101Q, K102R, D103E, L110A, V135I, L137R, K139D, V153I]mTNF-α(1–156) (natural protein)”: in assay [3], the stoichiometry N is 3.
In assay [4], “mTNFα mutant 14, [H20P, V22A, E24G, E27Q, M41V, V58I, V79I, V96I, V135I, V153I]mTNF-α(1–156) (natural protein)” gave a stoichiometry N of 3.
For the substance “mTNFα mutant 18, [L1V, Q6R, N7T, S8P, H20P, V22A, E24G, E27Q, S30N, Q31R, M41V, V58I, V79I, V96I, V135I, V153I]mTNF-α(1–156) (natural protein)”, the stoichiometry N in assay [5] was 3.
In turn, “mTNFα mutant 8, [L137R, K139D]mTNF-α(1–156) (natural protein)” came in with a stoichiometry N in assay [6] of 3.
Consider “mTNFα mutant 3, [S30N, Q31R]mTNF-α(1–156) (natural protein)”, for which, in [7], the stoichiometry N came out at 3.
In [8], “mTNFα mutant 13, [M41V, V58I, V79I, V96I, V135I, V153I]mTNF-α(1–156) (natural protein)” came in with a stoichiometry N of 3.
“mTNFα mutant 5, [P101Q, K102R, D103E, L110A]mTNF-α(1–156) (natural protein)”: the stoichiometry N in [9] came out at 3.
“mTNFα mutant 10, [H20P, V22A, E24G, E27Q, S30N, Q31R, L137R, K139D]mTNF-α(1–156) (natural protein)”: the stoichiometry N in [10] turned out to be 3.
As to “mTNFα mutant 11, [Q130R]mTNF-α(1–156) (natural protein)”, the stoichiometry N in assay [11] stood at 3.
Substance “mTNFα mutant 17, [L1V, Q6R, N7T, S8P, H20P, V22A, E24G, E27Q, S30N, Q31R, M41V, D42E, K44R, A52S, D53E, V58I, V79I, F82I, I84V, E88T, V96I, Q130R, V135I, L137R, K139D, V153I]mTNF-α(1–156) (natural protein)” yielded a stoichiometry N in assay [12] of 3.
In assay [13], “mTNFα mutant 12, [D42E, K44R, F82I, I84V, E88T, Q130R]mTNF-α(1–156) (natural protein)” showed a stoichiometry N of 3.
With “mTNFα mutant 6, D71S, Y72H, ins 71_T_72, P101Q, K102R,D103E,L110A]mTNF-α(1–156) (natural protein)”, the stoichiometry N in assay [14] stood at 3.
In assay [15], “mTNFα mutant 9, [H20P, V22A, E24G, E27Q]mTNF-α(1–156) (natural protein)” came in with a stoichiometry N of 3.
“mTNFα mutant 7, [E88T]mTNF-α(1–156) (natural protein)” showed a stoichiometry N in assay [16] of 3.
For the substance “mTNFα mutant 2, [Q6R, N7T, S8P, A52S, D53E]mTNF-α(1–156) (natural protein)”, in [17], the stoichiometry N turned out to be 3.
“mTNFα mutant 4, [D71S, Y72H, ins 71_T_72]mTNF-α(1–156) (natural protein)” gave a stoichiometry N in assay [18] of 3.
For the substance “mTNFα mutant 19, [L1V, Q6R, N7T, S8P, H20P, V22A, E24G, E27Q, S30N, Q31R, M41V, D42E, K44R, V58I, V79I, V96I, P101Q, K102R, D103E, L110A, V135I, L137R, K139D, V153I]mTNF-α(1–156) (natural protein)”, in [19], the stoichiometry N amounted to 3.
With “mTNFα mutant 15, [H20P, V22A, E24G, E27Q, S30N, Q31R, M41V, V58I, V79I, V96I, V135I, L137R, K139D, V153I]mTNF-α(1–156) (natural protein)”, in assay [20], the stoichiometry N is 3.
